Measurements: PMC5660060

T1: MSMEG_3765 (TetR3765) (Mycobacterium smegmatis mc2155) (UniProt A0QYS0)
T1 sequence: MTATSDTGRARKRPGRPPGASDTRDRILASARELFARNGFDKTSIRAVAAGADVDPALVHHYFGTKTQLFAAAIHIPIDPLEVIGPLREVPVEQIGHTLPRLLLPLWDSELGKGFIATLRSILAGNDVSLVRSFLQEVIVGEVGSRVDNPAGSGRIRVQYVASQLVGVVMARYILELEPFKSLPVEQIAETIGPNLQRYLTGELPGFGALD

T2: MSMEG_3765 (TetR3765) (Mycobacterium smegmatis mc2155, UniProt A0QYS0 1-211)
T2 sequence: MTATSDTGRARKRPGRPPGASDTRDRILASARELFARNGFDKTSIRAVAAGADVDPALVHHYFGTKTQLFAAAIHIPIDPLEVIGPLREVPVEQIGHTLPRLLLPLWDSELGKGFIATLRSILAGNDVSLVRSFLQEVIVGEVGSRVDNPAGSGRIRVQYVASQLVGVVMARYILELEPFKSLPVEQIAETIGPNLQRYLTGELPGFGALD


Molecular target: T1, MSMEG_3765 (TetR3765) (Mycobacterium smegmatis mc2155)
Assay: EMSA
Conditions: 40 mM HEPES pH 8.0, 150 mM NaCl, 20 mM MgCl2, 10% glycerol, 37 C, 20 min; 8% native PAGE, SYBR Safe

Molecule | binding
CGGGATCCGATCCTGCGGGGCGCCGACGACCACACGCTGTCGCTGATCACCGAGTACGTCGACGTCGCACGGTTGCGGGCCGACATTATCGGCCTGCTGGAGTCCGCCGCCTGAGCCAGGCGTCGCCGACGCCGAAATGTGTCGACGCATCGTCTTCCCACCGGACGACGGCAGGCCTAGAATTCATTGCATGATGACTTCATCGCGCGATGAATTGTCAGCGACGGGGCCCG (double strand) [MSMEG_3762 upstream fragment 218 bp] | binds
CTGCTGGAGTCCGCCGCCTGAGCCAGGCGTCGCCGACGCCGAAATGTGTCGACGCATCGTCTTCCCACCGGACGACGGCAGGCCTAGAATTCATTGCATGATGACTTCATCGCGCGATGAATTGTCAGCGACGGGGCCCG (double strand) [fragment a 133 bp] | binds
CTGCTGGAGTCCGCCGCCTGAGCCAGGCGTCGCCGACGCCGAAATGTGTCGACGCATCGTCTTCCCACCGGACGACGGCAGGCCTAGAATTCATTGC (double strand) [fragment c 97 bp] | no binding
CGGGCCCGATCCACGCTGGCCATGGCATCGGTGGTCGGTTCGTCGCTCATGTCGTCAAGTTAGCTTGACGACATGAGCGGCGTCAAGAAAACTTGACACAAAAGGAACAGGCACAATCGCATCGATGAGCGTCGACCTGCTGACCGGTGATCCGATCGCCGCGGCACGTCGGCTGATCGGCGCCCACCTCGTCGGGCGGGACGTCACCGCCACGATCGTCGAGGTCGAGGCCTACGGCGGACCGCCGGACGGCCCGTGGCCGGACGCGGCGTCGCATTCGTTCCGGATCCCG (double strand) [MSMEG_3760 upstream fragment (from GFP assay) 277 bp] | no binding
CCGGATCCGACCTCGACCACCATCGCACGCACACCCCGTCCGGCAATAGTTGCGCCGAGCAGCCGATGCGCGGCCGCGACCGGGTCGATCGCCAGTTCCTCAGCGTTCATCAGAGACGATTGTGCACCGGCCCTTGACAAACCCGCACGACTGGCGGATATTCATCACATGATGATTTCATCAAGTGATGAATTACTTCGCGACGGTGGGGCCCG (double strand) [Rv1687c upstream fragment 200 bp] | binds
CGGGATCCGATCCTGCGGGGCGCCGACGACCACACGCTGTCGCTGATCACCGAGTACGTCGACGTCGCACGGTTGCGGGCCGACATTATCGGCCTGCTGGAGTCCGCCGCCTGAGCCAGGCGTCGCCGACGCCGAAATGTGTCGACGCATCGTCTTCCCACCGGACGACGGCAGGCCTAGAATTCATTGC (double strand) [fragment b 182 bp] | no binding
GACGCTCATCGATGCGATTGTGCCTGTTCCTTTTGTGTCAAGTTTTCTTGACGCCGCTCATGTCGTCAAGCTAACTTGACGACATGAGCGACGAACCGACCACCGATGCCATGGCCAGCGTGGATCGGGCCCG (double strand) [MSMEG_3760 upstream fragment 127 bp (negative control)] | no binding

Molecular target: T2, MSMEG_3765 (TetR3765)
Assay: EMSA; 1.5-20 pmol protein; 40 mM HEPES pH 8.0, 150 mM NaCl, 20 mM MgCl2, 10% glycerol, 37 C, 20 min; 8% native PAGE, SYBR Safe
Conditions: protein: recombinant; tags: C-terminal His (pET-22b(+), NdeI-XhoI); chain copies: 2

Molecule | binding result
fragment d 36 bp TetR motif (dsDNA) DNA 1: AATTCATTGCATGATGACTTCATCGCGCGATGAATT DNA 2: AATTCATCGCGCGATGAAGTCATCATGCAATGAATT | binds
